Measurements: patent publication US20180037651A1 (Janssen / Centocor, published 2018)

T1: cyno GPRC5D (cyno, UniProt Q9NZD1 1-343 (human entry))
T1 construct: on transfected HEK293F or Daudi cells; also called cynomolgus monkey GPRC5D
T1 chain: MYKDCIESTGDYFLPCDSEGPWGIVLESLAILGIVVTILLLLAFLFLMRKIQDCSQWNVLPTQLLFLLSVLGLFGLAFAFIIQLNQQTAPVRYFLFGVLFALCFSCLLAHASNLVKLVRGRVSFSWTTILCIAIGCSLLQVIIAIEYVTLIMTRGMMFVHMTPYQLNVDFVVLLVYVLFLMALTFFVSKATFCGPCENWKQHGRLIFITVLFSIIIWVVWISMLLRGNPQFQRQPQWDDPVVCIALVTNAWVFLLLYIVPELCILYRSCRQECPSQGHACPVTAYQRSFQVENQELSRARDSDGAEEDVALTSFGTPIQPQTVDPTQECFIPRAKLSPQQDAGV

B1: GC5B492 (antibody, V domains shown)
VH: EVQLVQSGAEVKKPGESLKISCKGSGYSFTSYVIGWVRQMPGKGLEWMGIIYPGYSDTRYSPSFQGQVTISADKSISTAYLQWSSLKASDTAMYYCARVYSFGGRHKALFDYWGQGTLVTVSS
VL: EIVLTQSPATLSLSPGERATLSCRASQSVSSYLAWYQQKPGQAPRLLIYDASNRATGIPARFSGSGSGTDFTLTISSLEPEDFAVYYCQQRSNWPLTFGQGTKVEIK
notes: GC5B164 PTM variant; also called GC5H257
B2: GC5B495 (antibody, V domains shown)
VH: EVQLVQSGAEVKKPGESLKISCKGSGYSFTSYAIGWVRQMPGKGLEWMGIIYPGYSDTRYSPSFQGQVTISADKSISTAYLQWSSLKASDTAMYYCARVYSFGGRHKALFDYWGQGTLVTVSS
VL: EIVLTQSPATLSLSPGERATLSCRASQSVSSYLAWYQQKPGQAPRLLIYDASNRATGIPARFSGSGSGTDFTLTISSLEPEDFAVYYCQQRSNWPLTFGQGTKVEIK
notes: GC5B164 PTM variant; also called GC5H254
B3: GC5B498 (antibody, V domains shown)
VH: EVQLVQSGAEVKKPGESLKISCKGSGYSFTSYFIGWVRQMPGKGLEWMGIIYPGDSDTRYSPSFQGQVTISADKSISTAYLQWSSLKASDTAMYYCARVYSFGGRHKALFDYWGQGTLVTVSS
VL: EIVLTQSPATLSLSPGERATLSCRASQSVSSYLAWYQQKPGQAPRLLIYDASNRATGIPARFSGSGSGTDFTLTISSLEPEDFAVYYCQQRSNWPLTFGQGTKVEIK
notes: GC5B164 PTM variant; also called GC5H251
B4: GC5B494 (antibody, V domains shown)
VH: EVQLVQSGAEVKKPGESLKISCKGSGYSFTSYGIGWVRQMPGKGLEWMGIIYPGYSDTRYSPSFQGQVTISADKSISTAYLQWSSLKASDTAMYYCARVYSFGGRHKALFDYWGQGTLVTVSS
VL: EIVLTQSPATLSLSPGERATLSCRASQSVSSYLAWYQQKPGQAPRLLIYDASNRATGIPARFSGSGSGTDFTLTISSLEPEDFAVYYCQQRSNWPLTFGQGTKVEIK
notes: GC5B164 PTM variant; also called GC5H255
B5: GC5B504 (antibody, V domains shown)
VH: EVQLVQSGAEVKKPGESLKISCKGSGYSFTSYWIGWVRQMPGKGLEWMGIIYPGESDTRYSPSFQGQVTISADKSISTAYLQWSSLKASDTAMYYCARVYSFGGRHKALFDYWGQGTLVTVSS
VL: EIVLTQSPATLSLSPGERATLSCRASQSVSSYLAWYQQKPGQAPRLLIYDASNRATGIPARFSGSGSGTDFTLTISSLEPEDFAVYYCQQRSNWPLTFGQGTKVEIK
notes: GC5B164 PTM variant; also called GC5H245
B6: GC5B491 (antibody, V domains shown)
VH: EVQLVQSGAEVKKPGESLKISCKGSGYSFTSYYIGWVRQMPGKGLEWMGIIYPGYSDTRYSPSFQGQVTISADKSISTAYLQWSSLKASDTAMYYCARVYSFGGRHKALFDYWGQGTLVTVSS
VL: EIVLTQSPATLSLSPGERATLSCRASQSVSSYLAWYQQKPGQAPRLLIYDASNRATGIPARFSGSGSGTDFTLTISSLEPEDFAVYYCQQRSNWPLTFGQGTKVEIK
notes: GC5B164 PTM variant; also called GC5H258
B7: GC5B493 (antibody, V domains shown)
VH: EVQLVQSGAEVKKPGESLKISCKGSGYSFTSYFIGWVRQMPGKGLEWMGIIYPGYSDTRYSPSFQGQVTISADKSISTAYLQWSSLKASDTAMYYCARVYSFGGRHKALFDYWGQGTLVTVSS
VL: EIVLTQSPATLSLSPGERATLSCRASQSVSSYLAWYQQKPGQAPRLLIYDASNRATGIPARFSGSGSGTDFTLTISSLEPEDFAVYYCQQRSNWPLTFGQGTKVEIK
notes: GC5B164 PTM variant; also called GC5H256
B8: GC5B503 (antibody, V domains shown)
VH: EVQLVQSGAEVKKPGESLKISCKGSGYSFTSYWIGWVRQMPGKGLEWMGIIYPGKSDTRYSPSFQGQVTISADKSISTAYLQWSSLKASDTAMYYCARVYSFGGRHKALFDYWGQGTLVTVSS
VL: EIVLTQSPATLSLSPGERATLSCRASQSVSSYLAWYQQKPGQAPRLLIYDASNRATGIPARFSGSGSGTDFTLTISSLEPEDFAVYYCQQRSNWPLTFGQGTKVEIK
notes: GC5B164 PTM variant; also called GC5H246
B9: GC5B488 (antibody, V domains shown)
VH: EVQLVQSGAEVKKPGESLKISCKGSGYSFTSYFIGWVRQMPGKGLEWMGIIYPGESDTRYSPSFQGQVTISADKSISTAYLQWSSLKASDTAMYYCARVYSFGGRHKALFDYWGQGTLVTVSS
VL: EIVLTQSPATLSLSPGERATLSCRASQSVSSYLAWYQQKPGQAPRLLIYDASNRATGIPARFSGSGSGTDFTLTISSLEPEDFAVYYCQQRSNWPLTFGQGTKVEIK
notes: GC5B164 PTM variant; also called GC5H261
B10: GC5B496 (antibody, V domains shown)
VH: EVQLVQSGAEVKKPGESLKISCKGSGYSFTSYYIGWVRQMPGKGLEWMGIIYPGDSDTRYSPSFQGQVTISADKSISTAYLQWSSLKASDTAMYYCARVYSFGGRHKALFDYWGQGTLVTVSS
VL: EIVLTQSPATLSLSPGERATLSCRASQSVSSYLAWYQQKPGQAPRLLIYDASNRATGIPARFSGSGSGTDFTLTISSLEPEDFAVYYCQQRSNWPLTFGQGTKVEIK
notes: GC5B164 PTM variant; also called GC5H253
B11: GC5B497 (antibody, V domains shown)
VH: EVQLVQSGAEVKKPGESLKISCKGSGYSFTSYVIGWVRQMPGKGLEWMGIIYPGDSDTRYSPSFQGQVTISADKSISTAYLQWSSLKASDTAMYYCARVYSFGGRHKALFDYWGQGTLVTVSS
VL: EIVLTQSPATLSLSPGERATLSCRASQSVSSYLAWYQQKPGQAPRLLIYDASNRATGIPARFSGSGSGTDFTLTISSLEPEDFAVYYCQQRSNWPLTFGQGTKVEIK
notes: GC5B164 PTM variant; also called GC5H252
B12: GC5B501 (antibody, V domains shown)
VH: EVQLVQSGAEVKKPGESLKISCKGSGYSFTSYWIGWVRQMPGKGLEWMGIIYPGASDTRYSPSFQGQVTISADKSISTAYLQWSSLKASDTAMYYCARVYSFGGRHKALFDYWGQGTLVTVSS
VL: EIVLTQSPATLSLSPGERATLSCRASQSVSSYLAWYQQKPGQAPRLLIYDASNRATGIPARFSGSGSGTDFTLTISSLEPEDFAVYYCQQRSNWPLTFGQGTKVEIK
notes: GC5B164 PTM variant; also called GC5H248
B13: GC5B490 (antibody, V domains shown)
VH: EVQLVQSGAEVKKPGESLKISCKGSGYSFTSYAIGWVRQMPGKGLEWMGIIYPGESDTRYSPSFQGQVTISADKSISTAYLQWSSLKASDTAMYYCARVYSFGGRHKALFDYWGQGTLVTVSS
VL: EIVLTQSPATLSLSPGERATLSCRASQSVSSYLAWYQQKPGQAPRLLIYDASNRATGIPARFSGSGSGTDFTLTISSLEPEDFAVYYCQQRSNWPLTFGQGTKVEIK
notes: GC5B164 PTM variant; also called GC5H259
B14: GC5B505 (antibody, V domains shown)
VH: EVQLVQSGAEVKKPGESLKISCKGSGYSFTSYWIGWVRQMPGKGLEWMGIIYPGYSDTRYSPSFQGQVTISADKSISTAYLQWSSLKASDTAMYYCARVYSFGGRHKALFDYWGQGTLVTVSS
VL: EIVLTQSPATLSLSPGERATLSCRASQSVSSYLAWYQQKPGQAPRLLIYDASNRATGIPARFSGSGSGTDFTLTISSLEPEDFAVYYCQQRSNWPLTFGQGTKVEIK
notes: GC5B164 PTM variant; also called GC5H244
B15: GC5B502 (antibody, V domains shown)
VH: EVQLVQSGAEVKKPGESLKISCKGSGYSFTSYWIGWVRQMPGKGLEWMGIIYPGSSDTRYSPSFQGQVTISADKSISTAYLQWSSLKASDTAMYYCARVYSFGGRHKALFDYWGQGTLVTVSS
VL: EIVLTQSPATLSLSPGERATLSCRASQSVSSYLAWYQQKPGQAPRLLIYDASNRATGIPARFSGSGSGTDFTLTISSLEPEDFAVYYCQQRSNWPLTFGQGTKVEIK
notes: GC5B164 PTM variant; also called GC5H247
B16: GC5B331 (antibody, V domains shown)
VH: EVQLVQSGAEVKKPGESLKISCKGSGYSFTSYWIGWVRQMPGKGLEWMGIIYPGDSDTRYSPSFQGQVTISADKSISTAYLQWSSLKASDTAMYYCARIGFYGRSFRIFDYWGQGTLVTVSS
VL: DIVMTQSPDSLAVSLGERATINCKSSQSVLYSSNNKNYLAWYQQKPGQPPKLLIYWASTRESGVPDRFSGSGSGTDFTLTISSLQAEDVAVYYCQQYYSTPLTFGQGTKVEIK
notes: GC5H35+PH9L2
B17: GC5B333 (printed with GC5H35) (antibody, V domains shown)
VH: EVQLVQSGAEVKKPGESLKISCKGSGYSFTSYWIGWVRQMPGKGLEWMGIIYPGDSDTRYSPSFQGQVTISADKSISTAYLQWSSLKASDTAMYYCARIGFYGRSFRIFDYWGQGTLVTVSS
VL: not shown
notes: GC5H35+PH9L4
B18: GC5B80 (antibody, V domains shown)
VH: not shown
VL: EIVLTQSPATLSLSPGERATLSCRASQSVSSYLAWYQQKPGQAPRLLIYDASNRATGIPARFSGSGSGTDFTLTISSLEPEDFAVYYCQQRSNWPLTFGQGTKVEIK
notes: GC5H40+PH9L3
B19: GC5B320 (printed with GC5H92) (antibody, V domains shown)
VH: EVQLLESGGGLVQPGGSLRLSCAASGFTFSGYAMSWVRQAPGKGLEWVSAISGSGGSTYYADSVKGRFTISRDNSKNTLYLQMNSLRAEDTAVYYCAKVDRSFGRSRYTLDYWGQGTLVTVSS
VL: EIVLTQSPATLSLSPGERATLSCRASQSVSSYLAWYQQKPGQAPRLLIYDASNRATGIPARFSGSGSGTDFTLTISSLEPEDFAVYYCQQRSNWPLTFGQGTKVEIK
B20: GC5B332 (printed with GC5H89) (antibody, V domains shown)
VH: EVQLVQSGAEVKKPGESLKISCKGSGYSFTSYWIGWVRQMPGKGLEWMGIIYPGDSDTRYSPSFQGQVTISADKSISTAYLQWSSLKASDTAMYYCARIGFYGRSFRIFDYWGQGTLVTVSS
VL: EIVLTQSPATLSLSPGERATLSCRASQSVSSYLAWYQQKPGQAPRLLIYDASNRATGIPARFSGSGSGTDFTLTISSLEPEDFAVYYCQQRSNWPLTFGQGTKVEIK
B21: GC5B284 (antibody, V domains shown)
VH: not shown
VL: EIVLTQSPATLSLSPGERATLSCRASQSVSSYLAWYQQKPGQAPRLLIYDASNRATGIPARFSGSGSGTDFTLTISSLEPEDFAVYYCQQRSNWPLTFGQGTKVEIK
notes: GC5H14+PH9L3

Biological target: T2, human GPRC5D (human, UniProt Q9NZD1 1-345)
T2 construct: on transfected HEK293/RBL cells or endogenous on myeloma cells (H929, MM1R, OPM2, LP1, JIM3, patient plasma cells); also called G protein-coupled receptor class C group 5 member D; hGPRC5D
Test: FACS, human GPRC5D cells

T2 sequence (Q9NZD1 whole entry): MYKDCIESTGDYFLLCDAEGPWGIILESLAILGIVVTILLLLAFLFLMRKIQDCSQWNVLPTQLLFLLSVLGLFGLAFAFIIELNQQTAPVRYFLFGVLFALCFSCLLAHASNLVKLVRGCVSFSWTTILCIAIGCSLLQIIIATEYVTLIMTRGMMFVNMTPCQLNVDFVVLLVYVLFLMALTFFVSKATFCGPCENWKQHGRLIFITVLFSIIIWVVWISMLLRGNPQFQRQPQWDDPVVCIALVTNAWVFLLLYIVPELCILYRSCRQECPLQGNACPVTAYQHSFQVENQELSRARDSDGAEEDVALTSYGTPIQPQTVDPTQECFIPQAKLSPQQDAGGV

First: B1
Second: B2
The MFI of the first is higher: greater than 10000 mfi for the first, 1000 to 10000 mfi for the second.

First: B3
Second: B4
The MFI of the first is higher: greater than 10000 mfi for the first, 1000 to 10000 mfi for the second.

B5 and B6 cannot be ordered by MFI: greater than 10000 mfi for the first, greater than 10000 mfi for the second.

B7 and B8 cannot be ordered by MFI: greater than 10000 mfi for the first, greater than 10000 mfi for the second.

B9 and B10 cannot be ordered by MFI: greater than 10000 mfi for the first, greater than 10000 mfi for the second.

B11 and B12 cannot be ordered by MFI: greater than 10000 mfi for the first, greater than 10000 mfi for the second.

Compared with B13, B14 is higher in MFI: 1000 to 10000 mfi for the first, greater than 10000 mfi for the second.

For B15, the MFI was greater than 10000 mfi.

Biological target: T1, cyno GPRC5D
Test: FACS, cyno GPRC5D cells, 1 ug/ml
Protocol: Whole cell phage panning was completed using the human GPRC5D cells as antigen, as described above. […] These mAbs were initially evaluated for binding to cyno GPRC5D using FACS. […] Briefly, FACS screening was performed by normalizing protein concentration to 1 ug/ml and 100 ul of protein was mixed with 200,000 cells per well. The mAb was allowed to incubate with cells for 1 hour at 4° C. The cells were then washed three times with PBS and 0.2% FBS. […] The cells and secondary antibody were incubated for 1 hour at 4° C. The cells were then washed three times with PBS and 0.2% FBS. The cells were washed again using PBS and 0.2% FBS and then analyzed on FACSarry.

In order of falling MFI:
1. B17  1590 MFI
2. B16  552 MFI
3. B18  428 MFI
4. B20  299 MFI
5. B19  297 MFI
6. B21  249 MFI
